Data from article PMC9482650, “Quantitative fragmentomics allow affinity mapping of interactomes” (Nature Communications, 2022).

T1: LIN7A, O14910
T1 sequence (O14910 103-200, limits assumed, looked up): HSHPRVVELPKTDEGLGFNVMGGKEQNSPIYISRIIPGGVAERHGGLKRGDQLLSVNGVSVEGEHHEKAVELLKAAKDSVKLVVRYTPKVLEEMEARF

T2: RAPGEF6, Q8TEU7
T2 sequence (Q8TEU7 525-625, limits assumed, looked up): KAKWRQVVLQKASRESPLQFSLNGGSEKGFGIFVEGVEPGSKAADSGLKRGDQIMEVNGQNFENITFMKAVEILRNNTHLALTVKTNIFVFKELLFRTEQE

T3: APBA1_1, Q02410
T3 sequence (Q02410 651-752, limits assumed, looked up): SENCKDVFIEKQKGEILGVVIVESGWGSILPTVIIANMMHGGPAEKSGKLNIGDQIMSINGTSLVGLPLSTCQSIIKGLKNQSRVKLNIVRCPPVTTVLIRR

T4: GRIP1_4, Q9Y3R0
T4 sequence (Q9Y3R0 467-571, limits assumed, looked up): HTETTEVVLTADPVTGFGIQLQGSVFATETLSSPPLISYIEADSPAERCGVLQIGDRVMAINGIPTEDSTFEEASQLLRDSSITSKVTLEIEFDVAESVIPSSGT

T5: MPP7, Q5T2T1
T5 sequence (Q5T2T1 134-230, limits assumed, looked up): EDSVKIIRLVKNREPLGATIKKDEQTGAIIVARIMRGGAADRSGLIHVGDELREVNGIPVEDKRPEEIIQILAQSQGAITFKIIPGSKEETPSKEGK

T6: MPP6, Q9NZW5
T6 sequence (Q9NZW5 125-219, limits assumed, looked up): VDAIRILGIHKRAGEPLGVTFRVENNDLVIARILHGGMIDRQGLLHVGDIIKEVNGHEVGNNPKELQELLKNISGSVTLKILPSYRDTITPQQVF

T7: DLG3_3, Q92796
T7 sequence (Q92796 374-475, limits assumed, looked up): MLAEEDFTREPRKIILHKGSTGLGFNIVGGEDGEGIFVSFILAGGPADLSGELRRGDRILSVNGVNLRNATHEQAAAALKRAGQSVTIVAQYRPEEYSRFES

T8: SNTG1, Q9NSN8
T8 sequence (Q9NSN8 52-150, limits assumed, looked up): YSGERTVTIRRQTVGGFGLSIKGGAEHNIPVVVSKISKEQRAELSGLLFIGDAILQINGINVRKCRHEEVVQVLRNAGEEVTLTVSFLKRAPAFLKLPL


Legend:
Test in all cases: holdup assay
Parameters in all cases: key: below the threshold = too weak to quantify, mostly under pKd 3.1 to 4
Conditions in all cases: plain residues with an end cap or a label only (N-terminal biotin on a linker: ado-ado)
HTRA1, Q92743 = target: HTRA1, Q92743
LDB3, O75112 = target: LDB3, O75112
HTRA2, O43464 = target: HTRA2, O43464
LIN7A, O14910 = target: T1, LIN7A, O14910
DLG1_3, Q12959 = target: DLG1_3, Q12959
GRIP2_4, Q9C0E4 = target: GRIP2_4, Q9C0E4
RAPGEF6, Q8TEU7 = target: T2, RAPGEF6, Q8TEU7
GRIP2_6, Q9C0E4 = target: GRIP2_6, Q9C0E4
Inadl_9, Q8NI35 = target: Inadl_9, Q8NI35
MAGI1_1, Q96QZ7 = target: MAGI1_1, Q96QZ7
GRIP2_5, Q9C0E4 = target: GRIP2_5, Q9C0E4
CASK, O14936 = target: CASK, O14936
APBA1_1, Q02410 = target: T3, APBA1_1, Q02410
LNX1_1, Q8TBB1 = target: LNX1_1, Q8TBB1
GRIP1_4, Q9Y3R0 = target: T4, GRIP1_4, Q9Y3R0
MAGI1_2, Q96QZ7 = target: MAGI1_2, Q96QZ7
MPP7, Q5T2T1 = target: T5, MPP7, Q5T2T1
LIMK2, P53671 = target: LIMK2, P53671
PDZRN4_1, Q6ZMN7 = target: PDZRN4_1, Q6ZMN7
MPP6, Q9NZW5 = target: T6, MPP6, Q9NZW5
DLG3_3, Q92796 = target: T7, DLG3_3, Q92796
LNX1_3, Q8TBB1 = target: LNX1_3, Q8TBB1
NHERF4_4, Q86UT5 = target: NHERF4_4, Q86UT5
FRMPD2_1, Q68DX3 = target: FRMPD2_1, Q68DX3
SNTG1, Q9NSN8 = target: T8, SNTG1, Q9NSN8
MAST1, Q9Y2H9 = target: MAST1, Q9Y2H9
IL16_4, Q14005 = target: IL16_4, Q14005
FRMPD3, Q5JV73 = target: FRMPD3, Q5JV73
IL16_3, Q14005 = target: IL16_3, Q14005
Chain of IL16_3, Q14005 (Q14005 1107-1207): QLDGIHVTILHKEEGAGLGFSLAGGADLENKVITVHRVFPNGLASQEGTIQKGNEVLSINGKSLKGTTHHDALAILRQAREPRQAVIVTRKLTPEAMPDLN

Chain of FRMPD2_1, Q68DX3 (Q68DX3 770-861): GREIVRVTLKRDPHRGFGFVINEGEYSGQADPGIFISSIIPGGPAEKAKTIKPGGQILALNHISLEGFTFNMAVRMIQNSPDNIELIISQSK
Chain of CASK, O14936 (O14936 487-570): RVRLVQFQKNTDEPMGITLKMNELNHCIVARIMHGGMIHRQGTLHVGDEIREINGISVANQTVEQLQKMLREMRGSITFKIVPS
Chain of HTRA1, Q92743 (Q92743 360-477): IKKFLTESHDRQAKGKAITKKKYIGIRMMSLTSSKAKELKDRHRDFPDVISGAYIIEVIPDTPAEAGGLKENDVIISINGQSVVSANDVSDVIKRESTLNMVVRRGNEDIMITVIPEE
Chain of IL16_4, Q14005 (Q14005 1229-1329): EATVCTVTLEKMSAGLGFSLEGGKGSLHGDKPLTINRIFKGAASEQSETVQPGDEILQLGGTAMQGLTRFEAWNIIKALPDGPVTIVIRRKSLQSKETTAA
Chain of FRMPD3, Q5JV73 (Q5JV73 12-100): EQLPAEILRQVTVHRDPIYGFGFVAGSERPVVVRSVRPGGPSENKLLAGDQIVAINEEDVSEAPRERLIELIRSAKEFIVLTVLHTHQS
Chain of MAGI1_2, Q96QZ7 (Q96QZ7 456-580): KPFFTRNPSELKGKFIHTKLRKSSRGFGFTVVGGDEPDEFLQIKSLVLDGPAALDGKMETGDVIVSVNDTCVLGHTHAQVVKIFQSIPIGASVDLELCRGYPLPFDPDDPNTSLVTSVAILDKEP
Chain of GRIP2_6, Q9C0E4 (Q9C0E4 648-740): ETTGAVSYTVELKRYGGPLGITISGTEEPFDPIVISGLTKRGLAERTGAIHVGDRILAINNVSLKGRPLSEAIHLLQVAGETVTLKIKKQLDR
Chain of LNX1_1, Q8TBB1 (Q8TBB1 261-371): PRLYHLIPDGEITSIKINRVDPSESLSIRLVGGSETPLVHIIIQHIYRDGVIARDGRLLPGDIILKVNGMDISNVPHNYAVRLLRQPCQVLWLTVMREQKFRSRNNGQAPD
Chain of DLG1_3, Q12959 (Q12959 457-571): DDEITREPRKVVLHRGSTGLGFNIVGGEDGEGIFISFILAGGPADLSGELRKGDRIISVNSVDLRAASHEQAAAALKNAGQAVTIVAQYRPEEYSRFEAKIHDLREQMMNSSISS
Chain of GRIP2_5, Q9C0E4 (Q9C0E4 544-642): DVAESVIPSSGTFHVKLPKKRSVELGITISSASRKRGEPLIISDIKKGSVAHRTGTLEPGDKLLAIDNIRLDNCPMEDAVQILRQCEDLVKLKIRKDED
Chain of Inadl_9, Q8NI35 (Q8NI35 1530-1615): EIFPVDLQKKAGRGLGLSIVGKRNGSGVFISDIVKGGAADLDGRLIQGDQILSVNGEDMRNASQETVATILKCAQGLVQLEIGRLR
Chain of HTRA2, O43464 (O43464 355-458): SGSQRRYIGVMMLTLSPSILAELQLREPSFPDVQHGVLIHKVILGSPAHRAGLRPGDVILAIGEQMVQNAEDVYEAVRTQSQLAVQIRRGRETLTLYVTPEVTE
Chain of MAST1, Q9Y2H9 (Q9Y2H9 962-1065): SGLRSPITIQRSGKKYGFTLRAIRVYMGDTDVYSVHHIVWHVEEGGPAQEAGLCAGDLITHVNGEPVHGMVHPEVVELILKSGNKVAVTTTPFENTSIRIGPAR
Chain of GRIP2_4, Q9C0E4 (Q9C0E4 446-548): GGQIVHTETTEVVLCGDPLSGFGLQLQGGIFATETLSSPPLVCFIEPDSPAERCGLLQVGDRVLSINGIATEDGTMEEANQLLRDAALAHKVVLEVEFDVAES
Chain of LDB3, O75112 (O75112 1-94): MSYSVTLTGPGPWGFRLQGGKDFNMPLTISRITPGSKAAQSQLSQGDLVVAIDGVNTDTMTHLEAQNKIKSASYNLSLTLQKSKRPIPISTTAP
Chain of MAGI1_1, Q96QZ7 (Q96QZ7 1-106): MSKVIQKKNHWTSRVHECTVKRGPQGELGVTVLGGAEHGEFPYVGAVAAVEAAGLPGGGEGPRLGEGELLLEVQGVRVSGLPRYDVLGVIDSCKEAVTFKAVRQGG
Chain of PDZRN4_1, Q6ZMN7 (Q6ZMN7 213-318): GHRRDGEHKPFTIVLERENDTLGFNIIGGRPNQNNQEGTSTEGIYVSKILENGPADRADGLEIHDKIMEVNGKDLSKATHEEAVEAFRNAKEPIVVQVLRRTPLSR
Chain of LIMK2, P53671 (P53671 143-248): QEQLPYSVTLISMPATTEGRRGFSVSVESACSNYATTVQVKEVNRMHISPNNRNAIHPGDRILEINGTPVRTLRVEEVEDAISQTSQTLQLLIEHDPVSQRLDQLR
Chain of NHERF4_4, Q86UT5 (Q86UT5 464-550): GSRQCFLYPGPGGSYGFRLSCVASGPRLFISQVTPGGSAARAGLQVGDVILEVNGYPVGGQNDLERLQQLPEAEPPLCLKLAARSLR
Chain of LNX1_3, Q8TBB1 (Q8TBB1 500-596): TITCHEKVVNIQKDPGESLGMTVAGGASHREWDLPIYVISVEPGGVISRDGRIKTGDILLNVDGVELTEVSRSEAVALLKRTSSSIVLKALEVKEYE

Binder | pKd (HTRA1, Q92743) | pKd (LDB3, O75112) | pKd (HTRA2, O43464) | pKd (LIN7A, O14910) | pKd (DLG1_3, Q12959) | pKd (GRIP2_4, Q9C0E4) | pKd (RAPGEF6, Q8TEU7) | pKd (GRIP2_6, Q9C0E4) | pKd (Inadl_9, Q8NI35) | pKd (MAGI1_1, Q96QZ7) | pKd (GRIP2_5, Q9C0E4) | pKd (CASK, O14936) | pKd (APBA1_1, Q02410) | pKd (LNX1_1, Q8TBB1) | pKd (GRIP1_4, Q9Y3R0) | pKd (MAGI1_2, Q96QZ7) | pKd (MPP7, Q5T2T1) | pKd (LIMK2, P53671) | pKd (PDZRN4_1, Q6ZMN7) | pKd (MPP6, Q9NZW5) | further results
NSTHNLKDYV [CLDN20, P56880] | 3.64 | below the threshold | below the threshold | below the threshold | below the threshold | below the threshold | below the threshold | below the threshold | 3.66 | below the threshold | below the threshold | below the threshold | below the threshold | below the threshold | below the threshold | below the threshold | below the threshold | below the threshold | below the threshold | below the threshold | pKd (DLG3_3, Q92796): below the threshold; pKd (LNX1_3, Q8TBB1): below the threshold; pKd (NHERF4_4, Q86UT5): below the threshold; pKd (FRMPD2_1, Q68DX3): below the threshold; pKd (SNTG1, Q9NSN8): below the threshold; pKd (MAST1, Q9Y2H9): 3.65; pKd (IL16_4, Q14005): 3.65; pKd (FRMPD3, Q5JV73): below the threshold; pKd (IL16_3, Q14005): below the threshold
PLATCDETSI [SEMA4F, O95754] | 3.89 | below the threshold | below the threshold | below the threshold | below the threshold | below the threshold | below the threshold | below the threshold | below the threshold | below the threshold | below the threshold | below the threshold | below the threshold | below the threshold | below the threshold | below the threshold | 3.54 | below the threshold | 4.33 | below the threshold | pKd (DLG3_3, Q92796): below the threshold; pKd (LNX1_3, Q8TBB1): below the threshold; pKd (NHERF4_4, Q86UT5): below the threshold; pKd (FRMPD2_1, Q68DX3): below the threshold; pKd (SNTG1, Q9NSN8): 4.53; pKd (MAST1, Q9Y2H9): 4.64; pKd (IL16_4, Q14005): below the threshold; pKd (FRMPD3, Q5JV73): below the threshold; pKd (IL16_3, Q14005): below the threshold
GTMFLRETSL [GUCY1A2, P33402] | 3.77 | below the threshold | below the threshold | 4.35 | 5.09 | below the threshold | below the threshold | below the threshold | below the threshold | below the threshold | below the threshold | below the threshold | below the threshold | 3.73 | below the threshold | 4.24 | below the threshold | below the threshold | 5.71 | below the threshold | pKd (DLG3_3, Q92796): 4.64; pKd (LNX1_3, Q8TBB1): below the threshold; pKd (NHERF4_4, Q86UT5): below the threshold; pKd (FRMPD2_1, Q68DX3): below the threshold; pKd (SNTG1, Q9NSN8): 5.09; pKd (MAST1, Q9Y2H9): 5.08; pKd (IL16_4, Q14005): 3.51; pKd (FRMPD3, Q5JV73): below the threshold; pKd (IL16_3, Q14005): below the threshold

Further lines, with some results ahead:

pKd (HTRA1, Q92743) | pKd (LDB3, O75112) | pKd (HTRA2, O43464) | pKd (LIN7A, O14910) | pKd (DLG1_3, Q12959) | pKd (GRIP2_4, Q9C0E4) | pKd (RAPGEF6, Q8TEU7) | pKd (GRIP2_6, Q9C0E4) | pKd (Inadl_9, Q8NI35) | pKd (MAGI1_1, Q96QZ7) | pKd (GRIP2_5, Q9C0E4) | pKd (CASK, O14936) | pKd (APBA1_1, Q02410) | pKd (LNX1_1, Q8TBB1) | pKd (GRIP1_4, Q9Y3R0) | pKd (MAGI1_2, Q96QZ7) | pKd (MPP7, Q5T2T1) | pKd (LIMK2, P53671) | pKd (PDZRN4_1, Q6ZMN7) | pKd (MPP6, Q9NZW5) | Binder | further results
4.82 | below the threshold | below the threshold | below the threshold | below the threshold | below the threshold | below the threshold | 4.15 | below the threshold | 4.22 | below the threshold | below the threshold | below the threshold | 3.47 | below the threshold | below the threshold | below the threshold | below the threshold | below the threshold | 3.71 | GQNMTVSVVI [PRLHR, P49683] | pKd (DLG3_3, Q92796): below the threshold; pKd (LNX1_3, Q8TBB1): below the threshold; pKd (NHERF4_4, Q86UT5): 3.97; pKd (FRMPD2_1, Q68DX3): below the threshold; pKd (SNTG1, Q9NSN8): below the threshold; pKd (MAST1, Q9Y2H9): 3.9; pKd (IL16_4, Q14005): 3.62; pKd (FRMPD3, Q5JV73): below the threshold; pKd (IL16_3, Q14005): below the threshold
below the threshold | below the threshold | 3.52 | below the threshold | 3.97 | below the threshold | 3.48 | 3.48 | below the threshold | below the threshold | 3.58 | below the threshold | below the threshold | 3.79 | below the threshold | 3.58 | below the threshold | below the threshold | 3.56 | below the threshold | IKLETKKTKL [SLC15A2, Q16348] | pKd (DLG3_3, Q92796): 3.81; pKd (LNX1_3, Q8TBB1): below the threshold; pKd (NHERF4_4, Q86UT5): below the threshold; pKd (FRMPD2_1, Q68DX3): below the threshold; pKd (SNTG1, Q9NSN8): 3.64; pKd (MAST1, Q9Y2H9): 4.86; pKd (IL16_4, Q14005): 3.72; pKd (FRMPD3, Q5JV73): below the threshold; pKd (IL16_3, Q14005): below the threshold
